Results reported in patent US20210206877A1 (Genentech, published 2021).
Like-named read-outs stand apart in the source and are kept apart here.

Columns and labels:
Assay in all cases: cell-based or functional assay
human BACE1 ECD = human BACE1 ECD (human, UniProt P56817)
murine BACE1 ECD = target: murine BACE1 ECD
[1] = target: BACE1 ECD (as used in the enzyme activity assay) (UniProt P56817 22-457, limits assumed)
[2] = target: T1, BACE1 endogenous to primary cortical neurons from E16.5 CD1 mice (mouse, UniProt P56818 46-501)
T1 sequence (P56818 46-501): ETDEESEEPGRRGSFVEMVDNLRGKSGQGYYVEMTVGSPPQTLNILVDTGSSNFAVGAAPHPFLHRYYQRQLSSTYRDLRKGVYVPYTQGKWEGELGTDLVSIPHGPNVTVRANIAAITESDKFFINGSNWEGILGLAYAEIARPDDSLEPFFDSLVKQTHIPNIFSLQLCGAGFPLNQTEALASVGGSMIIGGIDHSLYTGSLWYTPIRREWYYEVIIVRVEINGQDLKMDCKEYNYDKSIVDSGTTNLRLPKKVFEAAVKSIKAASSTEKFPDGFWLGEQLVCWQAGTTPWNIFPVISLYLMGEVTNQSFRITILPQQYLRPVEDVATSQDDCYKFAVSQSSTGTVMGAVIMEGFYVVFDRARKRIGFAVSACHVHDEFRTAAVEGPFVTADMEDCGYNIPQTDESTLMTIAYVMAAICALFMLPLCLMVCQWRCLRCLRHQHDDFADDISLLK

[3] = target: T1, BACE1 endogenous to primary cortical …; remark: listed apart in the source
For % inhibition, FRET short substrate assay (negative = activation) in this document: test concentration or dose not given here.

Chain of murine BACE1 ECD (single chain, as listed by the source limits assumed): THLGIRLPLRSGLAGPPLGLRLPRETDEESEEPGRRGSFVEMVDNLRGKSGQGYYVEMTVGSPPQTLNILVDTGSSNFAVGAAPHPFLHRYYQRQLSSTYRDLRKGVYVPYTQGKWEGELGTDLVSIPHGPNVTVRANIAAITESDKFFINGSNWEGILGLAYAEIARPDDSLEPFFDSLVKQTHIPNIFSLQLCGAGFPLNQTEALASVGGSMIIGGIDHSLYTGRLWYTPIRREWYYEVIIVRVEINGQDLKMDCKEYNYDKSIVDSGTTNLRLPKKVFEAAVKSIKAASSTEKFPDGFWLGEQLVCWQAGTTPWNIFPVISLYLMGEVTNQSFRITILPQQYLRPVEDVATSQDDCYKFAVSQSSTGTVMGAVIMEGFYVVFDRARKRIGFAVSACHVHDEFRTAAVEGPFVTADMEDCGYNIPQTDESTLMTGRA
Chain of human BACE1 ECD (P56817 22-457): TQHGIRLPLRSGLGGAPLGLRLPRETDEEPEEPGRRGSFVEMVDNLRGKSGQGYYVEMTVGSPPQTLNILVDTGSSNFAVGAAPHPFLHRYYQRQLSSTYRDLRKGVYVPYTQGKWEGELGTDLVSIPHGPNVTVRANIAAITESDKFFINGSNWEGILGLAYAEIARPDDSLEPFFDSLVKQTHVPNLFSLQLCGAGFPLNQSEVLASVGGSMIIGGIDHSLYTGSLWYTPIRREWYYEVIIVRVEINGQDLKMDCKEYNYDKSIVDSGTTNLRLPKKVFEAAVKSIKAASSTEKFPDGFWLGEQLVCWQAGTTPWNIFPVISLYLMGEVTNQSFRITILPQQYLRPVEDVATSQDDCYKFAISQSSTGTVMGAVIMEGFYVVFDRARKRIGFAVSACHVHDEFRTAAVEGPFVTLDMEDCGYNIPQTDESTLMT
Chain of BACE1 ECD (as used in the enzyme activity assay) (P56817 22-457 limits assumed): as the sequence (P56817 22-457) above

Row | Binder | % inhibition, FRET short substrate assay (negative = activation) (human BACE1 ECD) [%] | % inhibition, FRET short substrate assay (negative = activation) (murine BACE1 ECD) [%] | EC50, FRET short substrate assay [1] [nM] | EC50, HTRF long substrate assay [1] [nM] | max % inhibition, Abeta x-40 in mouse cortical neurons [2] [%] | max % inhibition, Abeta x-40 in mouse cortical neurons [3] [%]
1 | 5878 (antibody, V domains shown) VH: EVQLLESGGGLVQPGGSLRLSCAASGFTFSSYAMSWVRQAPGKGLEWVSAISGSGISTPYADSVKGRFTISRDNSKNTLYLQMNSLRAEDTAVYYCAKGAGHGSYVKGWFDPWGQGTLVTVSS VL: EIVLTQSPATLSLSPGERATLSCRASQSVSSYLAWYQQKPGQAPRLLIYDASNRATGIPARFSGSGSGTDFTLTISSLEPEDFAVYYCQQSVNFPFTFGGGTKVEIK | 99 | 98 | 24.3 | 164 | – | –
2 | 5583 (antibody, V domains shown) VH: not shown VL: EIVLTQSPATLSLSPGERATLSCRASQSVSSYLAWYQQKPGQAPRLLIYDASNRATGIPARFSGSGSGTDFTLTISSLEPEDFAVYYCVQRSNFPWTFGGGTKVEIK | 44 | 34 | 9.72 | 172 | – | –
3 | 5532 (antibody, V domains shown) VH: not shown VL: EIVLTQSPATLSLSPGERATLSCRASQSVSSYLAWYQQKPGQAPRLLIYDASNRATGIPARFSGSGSGTDFTLTISSLEPEDFAVYYCQQSSNFPFTFGGGTKVEIK | 56 | 50 | 52.3 | 104 | – | –
4 | 5592 (antibody, V domains shown) VH: not shown VL: EIVLTQSPATLSLSPGERATLSCRASQSVSSYLAWYQQKPGQAPRLLIYDASNRATGIPARFSGSGSGTDFTLTISSLEPEDFAVYYCQQSVNFPFTFGGGTKVEIK | 63 | 60 | 95.9 | 189 | – | –
5 | 5260 (antibody, V domains shown) VH: QVQLVQSGAEVKKPGSSVKVSCKASGGTFSSYAISWVRQAPGQGLEWMGSIIPIFGTANYAQKFQGRVTITADESTSTAYMELSSLRSEDTAVYYCARSGGTKYGMLDVWGQGTMVTVSS VL: EIVMTQSPATLSVSPGERATLSCRASQSVGSNLAWYQQKPGQAPRLLIYGASTRATGIPARFSGSGSGTEFTLTISSLQSEDFAVYYCQQAVVWPPRTFGGGTKVEIK | -54 | -35 | 36.8 | 720 | 74 | –
6 | 5571 (antibody, V domains shown) VH: QVQLVQSGAEVKKPGSSVKVSCKASGGTFSSYAISWVRQAPGQGLEWMGNIIPIFGTANYAQKFQGRVTITADESTSTAYMELSSLRSEDTAVYYCARSGGTKYGMLDVWGQGTVVTVSS VL: EIVMTQSPATLSVSPGERATLSCRASQSVSSNLAWYQQKPGQAPRLLIYGASTRATGIPARFSGSGSGTEFTLTISSLQSEDFAVYYCQQLILWPPRTFGGGTKVEIK | -89 | -175 | 0.417 | 5.06 | 84 | –
7 | 5543 (antibody, V domains shown) VH: QLQLQESGPGLVKPSETLSLTCTVSGGSISSSSYYWGWIRQPPGKGLEWIGSIYYSGSTYYNPSLKSRVTISVDTSKNQFSLKLSSVTAADTAVYYCARVGHGISYFDLWGRGTLVTVSS VL: EIVLTQSPATLSLSPGERATLSCRASQSVSSYLAWYQQKPGQAPRLLIYDASNRATGIPARFSGSGSGTDFTLTISSLEPEDFAVYYCQQAYVWPPRTFGGGTKVEIK | – | – | 9.11 | 30 | 65 | –
8 | 5643 (antibody, V domains shown) VH: QLQLQESGPGLVKPSETLSLTCTVSGGSISSSSYYWGWIRQPPGKGLEWIGSIYYSGSTYYNPSLKSRVTISVDTSKNQFSLKLSSVTAADTAVYYCARVGHGISYFDLWGRGTLVTVSS VL: EIVLTQSPATLSLSPGERATLSCRASQSVSSYLAWYQQKPGQAPRLLIYDASNRATGIPARFSGSGSGTDFTLTISSLEPEDFAVYYCQQSLTWPPRTFGGGTKVEIK | – | – | 1.41 | 17.7 | 60 | –
9 | 5536 (antibody, V domains shown) VH: QVQLVQSGAEVKKPGSSVKVSCKASGGTFSSYAISWVRQAPGQGLEWMGSIIPIFGTANYAQKFQGRVTITADESTSTAYMELSSLRSEDTAVYYCARSGGTKYGMLDVWGQGTMVTVSS VL: EIVMTQSPATLSVSPGERATLSCRASQSVGSNLAWYQQKPGQAPRLLIYGASTRATGIPARFSGSGSGTEFTLTISSLQSEDFAVYYCQQSYLWPPRTFGGGTKVEIK | 32 | 30 | – | 0.578 | 84 | –

Now from value to binder:

Row | % inhibition, FRET short substrate assay (negative = activation) (human BACE1 ECD) [%] | % inhibition, FRET short substrate assay (negative = activation) (murine BACE1 ECD) [%] | EC50, FRET short substrate assay [1] [nM] | EC50, HTRF long substrate assay [1] [nM] | max % inhibition, Abeta x-40 in mouse cortical neurons [2] [%] | max % inhibition, Abeta x-40 in mouse cortical neurons [3] [%] | Binder
10 | 37 | 33 | 0.798 | 3.97 | – | – | 5874 (antibody, V domains shown) VH: EVQLLESGGGLVQPGGSLRLSCAASGFTFGSYAMSWVRQAPGKGLEWVSATSGSGGSTYYADSVKGRFTISRDNSKNTLYLQMDSLRAEDTAVYYCAKGGSQWLYAPGSWFDPWGQGTLVTVSS VL: EIVLTQSPATLSLSPGERATLSCRASQSVSSYLAWYQQKPGQAPRLLIYDASNRATGIPARFSGSGSGTDFTLTISSLEPEDFAVYYCVQRSNFPWTFGGGTKVEIK
11 | 99 | 97 | 7.88 | 171 | – | – | 5880 (antibody, V domains shown) VH: EVQLLESGGGLVQPGGSLRLSCAASGFTFGSYAMTWVRQAPGKGLEWVSAISGSGISTPYADSVKGRFTISRDNSKNTLYLQMNSLRAEDTAVYYCAKGAGHGSYVKGWFDPWGQGTLVTVSS VL: EIVLTQSPATLSLSPGERATLSCRASQSVSSYLAWYQQKPGQAPRLLIYDASNRATGIPARFSGSGSGTDFTLTISSLEPEDFAVYYCQQSVNFPFTFGGGTKVEIK
12 | 51 | 39 | 1.99 | 4.9 | – | – | 5875 (antibody, V domains shown) VH: EVQLLESGGGLVQPGGSLRLSCAASGFTFSTYAMGWVRQAPGKGLEWVSATSGSGGSTYYADSVKGRFTISRDNSKNTLYLQMNSLRAEDTAVYYCAKGGSQWLYAPGSWFDPWGQGTLVTVSS VL: EIVLTQSPATLSLSPGERATLSCRASQSVSSYLAWYQQKPGQAPRLLIYDASNRATGIPARFSGSGSGTDFTLTISSLEPEDFAVYYCVQRSNFPWTFGGGTKVEIK
13 | 58 | 46 | 0.703 | 1.67 | – | – | 5876 (antibody, V domains shown) VH: EVQLLESGGGLVQPGGSLRLSCAASGFTFSSRAMGWVRQAPGKGLEWVSATSGSGGSIYYADSVKGRFTISRDNSKNTLYLQMNSLRAEDTAVYYCAKGGSQWLYAPGSWFDPWGQGTLVTVSS VL: EIVLTQSPATLSLSPGERATLSCRASQSVSSYLAWYQQKPGQAPRLLIYDASNRATGIPARFSGSGSGTDFTLTISSLEPEDFAVYYCVQRSNFPWTFGGGTKVEIK
14 | 97 | 98 | 5.93 | 33.7 | – | – | 5881 (antibody, V domains shown) VH: EVQLLESGGGLVQPGGSLRLSCAASGFTFSKYAMSWVRQAPGKGLEWVSAISGSGISTPYADSVKGRFTISRDNSKNTLYLQMNSLRAEDTAVYYCAKGAGHGSYVKGWFDPWGQGTLVTVSS VL: EIVLTQSPATLSLSPGERATLSCRASQSVSSYLAWYQQKPGQAPRLLIYDASNRATGIPARFSGSGSGTDFTLTISSLEPEDFAVYYCQQSVNFPFTFGGGTKVEIK
15 | – | – | – | – | – | 67 | 6298 (antibody, V domains shown) VH: QLQLQESGPGLVKPSETLSLTCTVSGGSISWSSYYWSWIRQPPGKGLEWIGNIYYSGSTYYNPSLKSRVTISVDTSKNQFSLKLSSVTAADTAVYYCARLGHGYNYFDLWGRGTLVTVSS VL: EIVLTQSPATLSLSPGERATLSCRASQSVSSYLAWFQQKPGQAPRLLIYDASNRATGIPARFSGSGSGTDFTLTISSLEPEDFAVYYCQQVYVWPPRTFGGGTKVEIK
16 | – | – | – | – | 74 | – | 5747 (antibody, V domains shown) VH: QLQLQESGPGLVKPSETLSLTCTVSGGSISSSSYYWGWIRQPPGKGLEWIGNIYYSGSTYYNPSLKSRVTISVDTSKNQFSLKLSSVTAADTAVYYCARLGHGYSYFDLWGRGTLVTVSS VL: EIVLTQSPATLSLSPGERATLSCRASQSVSSYLAWYQQKPGQAPRLLIYDASNRATGIPARFSGSGSGTDFTLTISSLEPEDFAVYYCQQVYLWPPRTFGGGTKVEIK
17 | – | – | – | – | 67 | – | 5902 (antibody, V domains shown) VH: QLQLQESGPGLVKPSETLSLTCTVSGGSISSSSYYWGWIRQPPGKGLEWIGSIYRSGSTWYNPSLKSRVTISVDTSKNQFSLKLSSVTAADTAVYYCARVGHGISYFDLWGRGTLVTVSS VL: EIVLTQSPATLSLSPGERATLSCRASQSVSSYLAWYQQKPGQAPRLLIYDASKRATGIPARFSGSGSGTDFTLTISSLEPEDFAVYYCQQVYTWPPRTFGGGTKVEIK
